Assay results taken from the DeepSol protein solubility set.

Test: soluble on expression in E. coli; label from the status in PepcDB or PDB records

| Sequence | soluble on expression in E. coli |
| --- | --- |
| MGSDKIHHHHHHMLNDFVDRCVWAADLSAEQRDRVRRAMFVREYTQGDYVCHKGEIAEHWLGVLEGIVKITTVSPSGKSVTFTGVPTGGWFGEGAVLKSEIRKYDVMALRRSTIAFLPRDTFQWLLDTSLPFTRFLLTQFNERLGQFIAAVEYERLLDIDSRVARAVSSLFNEHLYPGIGNTLEISQEEIGLLAGISRQRANQALKVLEQQGLVRVDYGVIEVLDLEGLRQYGE | not soluble |
| LYAFFKTMPKGGELHYHLAGGAYPETMLALAANGNYCLDKHTFAVSKDSSHCEGVNVKEVFNNPELYSNIIKDWSMKDFIPGKESGHDHFFNGFIKYMPIVFDYQPQLLADIVQRAAQQKAQYLEIMTIPDNAQSLTYGDLIKDIPSYDQKRRLLLANKDFQSNIQNTVLESDRILTKASQELRCNENPASDSCHVKIKFLYYVLREQPVDNVFAQALNAFEAVSKSKGNLIGVNLVQPEDGIISLRDYQKHMSIFEYLHRIYPNVPITLHAGELSPQAVTPENLSHHIRDALLIGHAQRIGHGVDIGYENNAEDTLKYMANHHIPVEINLISNLKILDISGSNHPLNYYLSHNVPVVLSTDDEGVLRTDLTQQYVEAAKEHGLSYQQLKQINRNTLTYSFLPGKSIWANADKAELVPDCHDLGSKSCQKFIAHNEKAKLQWNLEQQLIAFEKS | not soluble |
| KSAKEMLEYCNSTGLSLSGMVMQNELALHSKKEIEEYFGHVWQTMQACIDRGMNTEGVLPGPLRVPRRASALRRMLVSSDKLSSDPMNVIDWVNMFALAVNEENAAGGRVVTAPTNGACGIVPAVLAYYDHFIESVSPDIYTRYFLAAGAIGALYKMNASISGAEVGCQGEVGVACSMAAAGLAELLGASPEQVCVAAEIGMEHNLGLTCDPVAGQVQVPCIERNAIASVKAINAARMAMRRTSAPRVSLDKVIETMYETGKDMNAKYRETSRGGLAIK | not soluble |
| MAADISESSGADCKGDPRNSAKLDADYPLRVLYCGVCSLPTEYCEYMPDVAKCRQWLEKNFPNEFAKLTVENSPKQEAGISEGQGTAGEEEEKKKQKRGGRGQIKQKKKTVPQKVTIAKIPRAKKKYVTRVCGLATFEIDLKEAQRFFAQKFSCGASVTGEDEIIIQGDFTDDIIDVIQEKWPEVDDDSIEDLGEVKK | not soluble |
| MIKLDMTMLDSFKEDPNLRKLLFSGHFGLEKENIRVTSDGKLALTPHPAIFGPKEDNPYIKTDFSESQIEMITPVTDSIDSVYEWLENLHNIVSLRSENELLWPSSNPPILPAEEDIPIAEYKTPDSPDRKYREHLAKGYGKKIQLLSGIHYNFSFPEALIDGLYANISLPEESKQDFKNRLYLKVAKYFMKNRWLLIYLTGASPVYLADFSKTKHEESLPDGSSALRDGISLRNSNAGYKNKEALFVDYNSFDAYISSISNYIEAGKIESMREFYNPIRLKNAHTDQTVESLAEHGVEYLEIRSIDLNPLEPNGISKDELDFIHLFLIKGLLSEDRELCANNQQLADENENNIALNGLAQPSIKNCDNEDIPLADAGLLELDKMSDFIKSLRPEDTKLRAIIEKQKERLLHPEKTIAAQVKQQVTKEGYVDFHLNQAKTYMEETEALAYKLIGAEDMELSTQIIWKDAIARGIKVDVLDRAENFLRFQKGDHIEYVKQASKTSKDNYVSVLMMENKVVTKLVLAEHDIRVPFGDSFSDQALALEAFSLFEDKQIVVKPKSTNYGWGISIFKNKFTLEDYQEALNIAFSYDSSVIIEEFIPGDEFRFLVINDKVEAVLKRVPANVTGDGIHTVRELVEEKNTDPLRGTDHLKPLEKIRTGPEETLMLSMQNLSWDSIPKAEEIIYLRENSNVSTGGDSIDYTEEMDDYFKEIAIRATQVLDAKICGVDIIVPRETIDRDKHAIIELNFNPAMHMHCFPYQGEQKKIGDKILDFLFD | soluble |
| MSIYEFDSEEEYATFVNWIEAKKPSITDCSIETFNDDLEDFDRLDEDGLYIEYTRVLLDNLNVTKSMDLMIPTHSSFEFSQDFHLDAVRLRSCFGRNNLFNFHCKEIEVSDSEISSENVNQYLRAWAAGCYNELEKLEVLFYGNENKFDWKPLLQGLNRKRTIYEHNIIDPEVTDETTEVKIETEHPGEFDYYYYKWAKIHRKVDSEGNFYMGMIVN | not soluble |
| MFLKSLIFVLTFQFSNGNPVEQVHLSLSGKADEMVVTWLTHDPRKFTC | not soluble |
| TGKFKWDLGGNISFVKNKLLSLIEGSEMYVVPSSGSNLLGGSMHALINGEPISTFYMLKMEGIYQRDDEVPAKLYAKGVRAGDVRYFDYNEDGDITDADRVNVGKAIPDFYGGITSNFSYKGFDLSLFGQFSVGGKVMAAWRGVNGSEGTDHLGLALSNVKVGDRGESVEQFFNISKEVANGYWRGEGTSNSIPRPVRIGVHTGYDYDYNVQTSTRYLEDASYFKLKTVTLGYTLPESITKKIHVNSLRFYVSADNLLAFTKYSGYDPETSFSGSPGDSNYGVDFGLQPVLRTFIFGLNLNF | not soluble |
| MAHHHHHHMNPLYTDSISYSASDANITLPQQSMPQWANTNATASRVSAAPATAGEQAQQGNFASSLNSAGGFSVHVGSDAARSTLCSPKIATESLTAAAATTTTTKATTAVRRAPFLNPPPQQPLSGTRNRLSAPGSPAMYRSGPPIGFGGGPNYYYQYGGNTFIQDGKQQENEYYPPLPMSTPFHPVTAITKLVPLPHPKTGRGGIPAIFRFWGPIGSPAPRTPVPVPSLPNAGGVAATVFLAAIPISLVPQQMHPLSPRHPATGGSPAASSPLGGGESMGMSLVEVHHHSNGSSLGAGSPTAPAITPAPATAAAGASAVNLTVRVRRRTGGGNTAAIRVGGGASLAPLQLPSQGTSSLGASLTTLATTGPAKGPGTPFKHSPITPSNLPPAPLFAQSAPAQLLVDDSGSQRLSPTSMLPTNLVNEGSKTKGESVLRVDEDTYMQREAFRWNPYASTKWAQNRSNSTGASTSDSRGRLPVEGGSGSG | soluble |
| MKKVEILKTSRPSSAGGAARPSTASPTHGAPKIAIKTRPVADDVAPTAATVIEPSQKAMKESVRFLTDFGEISDAISDLLTSSPNFNVISAIGPQGAGKSTLLSMLAGNNSRQMYREYVFRPVSREANEQSRHQTIQIDIYIVNHQIFLDCQPMYSFSIMEGLPKVRGGRFDDSTAMSDTLRLTAFLLYVSHTVLVVSETHYDKVIIDTLRVAEQIRPYLAIFRPKLAIDRKTNLVFIKTKASSIDLAPTVIREREELLRLSFQDSRWLKVSQEPFKTLIVLEEIRVRREHLFEEGDEPDEAASLNEFDEQIAELREELQKNREDFTVETAAMDEKKWLDMCREVIRDKTLHKTLKEYQRAMTDGVRTHFDNGFHAERDANKFFS | not soluble |
| MGSDKIHHHHHHMNREVVIVGGGPAGMLMGLLLAKEKIQVTVLEKNTTFNRDFRGETIAPGSVFLLKKLGVFKALEEHGFIKVQKIKMYDREEKLFSVNFDDFNHPQKFGIDIPQPVVLEALKQKASSYPNFEYIHGATCTDLIKDGEKVVGIRYSKEKEEHQIKCRLVIGAEGRFSRLRTLGHFAVEKKEFSRDLIWFKVPKPEGWEEGNLIKVYKHDHVIILPTYPNDLRVGTYIYLGGNRETKAKGIAAFIDKVCMIEPRLRKPMEKHIKSWDDTTLLKIFTAHVDQWAKDGLILIGDAAHTLSPILGQGVNIAMQDAFELLPYVNSGLKTYEGPLPAHHFDDYISKRKKQVSFVAGFQERQEQNLAASTPFQCMLRKVKMKLLDKAPFKIKVMKKLQYGVVANETTEGLT | not soluble |
| MGSDKIHHHHHHMKVLVAMDEFHGIISSYQANRYVEEAVASQIETADVVQVPLFNGRHELLDSVFLWQSGQKYRIPVHDADMNEVEGVYGQTDTGMTVIEGNLFLKGKKPIVERTSYGLGEMIKHALDNDAKHVVISLGGIDSFDAGAGMLQALGAQFYDDEGRVVDMRQGAGVIKYIRRMDMSNLHPKMETARIQVMSDFSSRLYGKQSEIMQTYDAHQLNHNQAAEIDNLIWYFSELFKSELKIAIGPVERGGAGGGIAAVLNGLYQAEILTSHALVDQLTHLENLVEQADLIIFGEGLNENDQLLETTTLRIAELCHKHQKVAIAICATAEKFDLFESQGVTAMFNTFIDMPETYTDFKMGLQIRHYTVQSLKLLKTHFNVEV | not soluble |
| GPGSMTNFSPAKCEMDALFLTSAGTDGHPLAQPFWSSSRSSLPTFDAHRRGTARGRLQNPALIDSIRRSEGSRVGQDTCRYMQAAAASSQKAVHQLLSRLQTYRSFKPFLSPPAPYRDNLFTDDRGFSNFHGPSYGRGSTATVSRDQLWQMVDGILDTSVAQLLQHNAEGHFIMTLQSTLGLEAPISTAKSGTVIESRKAATPAIKGGATELASEERTPAGGPRQPLPPALQKTAVMSSFAPASALADRWALDHPSATAAAIEEQHHAWAKFEQQRQRTSRCFYLQAMQEQLDVLQAEQARDAADTTHSPPSRGDRSHRYLVDMHSPSDSEDAVAKTEEERQQALWHTFHDGPVLGVGASESLHETALGVPGIVSAYLESTDLQDWLHCSWAHRTHRHESAALRIQCAYRVYRARCKVREMRYERRQAFLASLSAERKARQVWDLALQVQKDTTTTTSGTDSTLRALQFFINKVNAVVAKHRARKQYQQRQDAEICRYAATRIQAVYRGHRTRAFVTELRHPEIVALRKHLQQENCAKLIQTCWRRYTAQRQWWRARHAACVLQSMYRCYAARRMLAERRYQRSLEASAELTKFAVQRIERWYASFLAARNAIGRAHVAELLMLQRVCRGYQGRHGVQKERRLSRFRFAVRTIEQRRWRVMEVREAIERRAALSATNAAKRTASMRDDAAVTIQRAWRQRRVLHVC | soluble |
| GMDELELRIRKAEKLVQDAKKEFEMGLYERCCSTAYYAMFHAAKAMLLGYGRDSKTHRGTIYLIWECREELGLSDDDCSKLSRAFDLREESDYGIYKEVSKDLAIKILKDAEIFVQKAKNAVNKNR | soluble |
| GPMATESPNSVQKIVVHLRATGGAPILKQSKFKVSGSDKFANVIDFLRRQLHSDSLFVYVNSAFSPNPDESVIDLYNNFGFDGKLVVNYACSMAWG | soluble |
| MGNNSSAQSSTPSLPIDSTFNLPSPLPSWPSGEGFAKGRIDLGGLEVSQVDTFNKVWTVYEGGQDNLGATFFEPSSVPEGFSILGFYAQPNNRKLFGWTLVGKDLSGDSLRPPVDYLLLWSGKSTKVENNKVETGYFWQPVPPDGYNAVGLIVTTSDEKPPLDKIRCVRSDLTDQSEPDALIWETNGFSVSSSKPVNRGTQASGVSVGTFFSNSPNPALPCLKNNNFDFSCMPSKPQIDALFQTYAPWIYFHKDEKYLPSSVNWFFSNGALLYKKGDESNPVPVEPNGLNLPQGEFNDGLYWLDLPVASDARKRVQCGDLQSMEVYLHIKPVFGGTFTDIAVWMFYPFNGPSRAKLKAASIPLGRIGEHIGDWEHFTLRISNFSGKLHRMYLSQHSGGSWADASEIEFQGGGNKPVAYASLNGHAMYSKPGLVLQGKDNVGIRNDTGKSEKVIDTAVRFRVVAAEYMRGELEEPAWLNYMRHWGPKIDYGHENEIRGVEKIMVGESLKTTFRSAIKGLPNEVFGEEGPTGPKLKRNWLGDEV | not soluble |
| KIGKHTIKFPIFQGGMGVGISWDELAGNVAKEGALGVISAVGTGYYKNMRFVERIVAKKPFEALNFYSKKALNEIFANARKICGNNPLGANILYAINDYGRVLRDSCEAGANIIITGAGLPTNMPEFAKDFSDVALIPIISSAKALKILCKRWSDRYKRIPDAFIVEGPLSGGHQGFKYEDCFKEEFRLENLVPKVVEASKEWGNIPIIAAGGIWDRKDIDTMLSLGASGVQMATRFLGTKECDAKVYADLLPTLKKEDILLIKSPVGYPARAINTGVIKRIEEGNAPKIACVSNCVAPCNRGEEAKKVGYCIADGLGRSYLGNREEGLYFTGANGYRVDKIISVHELIK | not soluble |
| MAHHHHHHMGKVRKNKQVRNLLKSLTERVDTDDGENEYARLTQTPVVSMRLSKVKFKTSLQNVLVEPYTERVKDFVAKNNYEIRMERALLDEIKNANQNMNRIGDVLSARGGKQGKTRDNHIIMSRYFHYLKDKDEDFGLSFFPVYKTFKSNASHFGDNLSSSLYPHELLQMGSMSSESFLKNSPKRISFPERGDS | not soluble |
